The results in this text go back to the supplement of paper PMC5998384.

Series [1] concerns HeLa Kyoto. Briefly: thermal stability score vs G1/S (z-score of summed log2 fold changes over temperatures); higher = more thermally stable than in G1/S.
In series [2] the test system is HeLa Kyoto. Kind of series: solubility in G1/S (NP-40 vs SDS abundance) (log2 ratio); higher = more soluble. The conditions noted are these: cell cycle stage: G1/S.
For series [3], the system named is HeLa Kyoto. Kind of series: melting temperature (median over replicates), in situ; higher = more thermally stable.
The subject of series [4] is HeLa Kyoto. Kind of series: solubility change mitosis vs G1/S (difference of NP-40 vs SDS log2 ratios) (log2 ratio difference); higher = more soluble in mitosis.
The mark [5] stands for this setting: cell cycle stage: early G1 (4.5 h after nocodazole release).
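Throughout, for melting temperature (median over replicates), in situ: HeLa Kyoto cells synchronized by double thymidine or nocodazole block, proteins quantified by TMT10plex mass spectrometry, three independent biological replicates.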
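Throughout, for solubility change mitosis vs G1/S (difference of NP-40 vs SDS log2 ratios): synchronized HeLa Kyoto cells (double thymidine block for G1/S, nocodazole release for mitosis), protein amounts in NP-40 versus SDS lysates quantified by mass spectrometry, three biological replicates.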
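Throughout, for solubility in G1/S (NP-40 vs SDS abundance): HeLa Kyoto cells arrested at G1/S by double thymidine block, proteins quantified by TMT10plex mass spectrometry in mild NP-40 versus SDS extracts, three biological replicates.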
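Throughout, for thermal stability score vs G1/S (z-score of summed log2 fold changes over temperatures): synchronized HeLa Kyoto cells, proteins quantified by TMT10plex mass spectrometry, three biological replicates, mitosis taken 0.5 h after nocodazole release, G1/S directly after double thymidine block.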

On to “MGCCSSASSAAQSSKREWKPLEDRSCTDIPWLLLFILFCIGMGFICGFSIATGAAARLVSGYDSYGNICGQKNTKLEAIPNSGMDHTQRKYVFFLDPCNLDLINRKIKSVALCVAACPRQELKTLSDVQKFAEINGSALCSYNLKPSEYTTSPKSSVLCPKLPVPASAPIPFFHRCAPVNISCYAKFAEALITFVSDNSVLHRLISGVMTSKEIILGLCLLSLVLSMILMVIIRYISRVLVWILTILVILGSLGGTGVLWWLYAKQRRSPKETVTPEQLQIAEDNLRALLIYAISATVFTVILFLIMLVMRKRVALTIALFHVAGKVFIHLPLLVFQPFWTFFALVLFWVYWIMTLLFLGTTGSPVQNEQGFVEFKISGPLQYMWWYHVVGLIWISEFILACQQMTVAGAVVTYYFTRDKRNLPFTPILASVNRLIRYHLGTVAKGSFIITLVKIPRMILMYIHSQLKGKENACARCVLKSCICCLWCLEKCLNYLNQNAYTATAINSTNFCTSAKDAFVILVENALRVATINTVGDFMLFLGKVLIVCSTGLAGIMLLNYQQDYTVWVLPLIIVCLFAFLVAHCFLSIYEMVVDVLFLCFAIDTKYNDGSPGREFYMDKVLMEFVENSRKAMKEAGKGGVADSRELKPMASGASSA [SLC44A1]”, for which the thermal stability score is -1.35 in series [1] (setting [5]) and -2.05 in series [1] (cell cycle stage: mitosis). Besides, in series [2], the “solubility in G1/S (log2)” value was -0.0157. This substance also returned a melting temperature in series [3] (cell cycle stage: G1/S) of 55.7 °C. Further, the “solubility change mitosis (log2)” value in series [4] was -0.147.
On to “MEDYLQGCRAALQESRPLHVVLGNEACDLDSTVSALALAFYLAKTTEAEEVFVPVLNIKRSELPLRGDIVFFLQKVHIPESILIFRDEIDLHALYQAGQLTLILVDHHILSKSDTALEEAVAEVLDHRPIEPKHCPPCHVSVELVGSCATLVTERILQGAPEILDRQTAALLHGTIILDCVNMDLKIGKATPKDSKYVEKLEALFPDLPKRNDIFDSLQKAKFDVSGLTTEQMLRKDQKTIYRQGVKVAISAIYMDLEAFLQRSNLLADLHAFCQAHSYDVLVAMTIFFNTHNEPVRQLAIFCPHVALQTTICEVLERSHSPPLKLTPASSTHPNLHAYLQGNTQVSRKKLLPLLQEALSAYFDSMKIPSGQPETADVSREQVDKELDRASNSLISGLSQDEEDPPLPPTPMNSLVDECPLDQGLPKLSAEAVFEKCSQISLSQSTTASLSKK [PRUNE]”, for which the thermal stability score amounted to 0.764 in series [1] (setting [5]) and 0.775 in series [1] (cell cycle stage: mitosis). The “solubility in G1/S (log2)” value in series [2] was found to be 0.182. For the same substance, the results for the melting temperature in series [3] (cell cycle stage: G1/S) and in series [3] (cell cycle stage: mitosis) were 50.3 °C and 49.6 °C, respectively. Further, in series [4], the “solubility change mitosis (log2)” value was -0.0758.
With “MGPLPRTVELFYDVLSPYSWLGFEILCRYQNIWNINLQLRPSLITGIMKDSGNKPPGLLPRKGLYMANDLKLLRHHLQIPIHFPKDFLSVMLEKGSLSAMRFLTAVNLEHPEMLEKASRELWMRVWSRNEDITEPQSILAAAEKAGMSAEQAQGLLEKIATPKVKNQLKETTEAACRYGAFGLPITVAHVDGQTHMLFGSDRMELLAHLLGEKWMGPIPPAVNARL [GSTK1]”, the thermal stability score was -1.28 in series [1] (setting [5]) and -0.907 in series [1] (cell cycle stage: mitosis). In series [2], the “solubility in G1/S (log2)” value came to 0.121. Moreover, the melting temperature in series [3] (cell cycle stage: G1/S) was 50.9 °C; in series [3] (cell cycle stage: mitosis), 52 °C. The “solubility change mitosis (log2)” value in series [4] is -0.098.
CUL7: the thermal stability score in series [1] (setting [5]) stood at 0.604; in series [1] (cell cycle stage: mitosis), 0.125. The “solubility in G1/S (log2)” value in series [2] stood at 0.0417. In series [3] (cell cycle stage: mitosis), this substance returned a melting temperature of 49.1 °C. In series [4], the “solubility change mitosis (log2)” value is -0.279.
Regarding “MDSLEEPQKKVFKARKTMRVSDRQQLEAVYKVKEELLKTDVKLLNGNHENGDLDPTSPLENMDYIKDKEEVNGIEEICFDPEGSKAEWKETPCILSVNVKNKQDDDLNCEPLSPHNITPEPVSKLPAEPVSGDPAPGDLDAGDPASGVLASGDSTSGDPTSSEPSSSDAASGDATSGDAPSGDVSPGDATSGDATADDLSSGDPTSSDPIPGEPVPVEPISGDCAADDIASSEITSVDLASGAPASTDPASDDLASGDLSSSELASDDLATGELASDELTSESTFDRTFEPKSVPVCEPVPEIDNIEPSSNKDDDFLEKNGADEKLEQIQSKDSLDEKNKADNNIDANEETLETDDTTICSDRPPENEKKVEEDIITELALGEDAISSSMEIDQGEKNEDETSADLVETINENVIEDNKSENILENTDSMETDEIIPILEKLAPSEDELTCFSKTSLLPIDETNPDLEEKMESSFGSPSKQESSESLPKEAFLVLSDEEDISGEKDESEVISQNETCSPAEVESNEKDNKPEEEEQVIHEDDERPSEKNEFSRRKRSKSEDMDNVQSKRRRYMEEEYEAEFQVKITAKGDINQKLQKVIQWLLEEKLCALQCAVFDKTLAELKTRVEKIECNKRHKTVLTELQAKIARLTKRFEAAKEDLKKRHEHPPNPPVSPGKTVNDVNSNNNMSYRNAGTVRQMLESKRNVSESAPPSFQTPVNTVSSTNLVTPPAVVSSQPKLQTPVTSGSLTATSVLPAPNTATVVATTQVPSGNPQPTISLQPLPVILHVPVAVSSQPQLLQSHPGTLVTNQPSGNVEFISVQSPPTVSGLTKNPVSLPSLPNPTKPNNVPSVPSPSIQRNPTASAAPLGTTLAVQAVPTAHSIVQATRTSLPTVGPSGLYSPSTNRGPIQMKIPISAFSTSSAAEQNSNTTPRIENQTNKTIDASVSKKAADSTSQCGKATGSDSSGVIDLTMDDEESGASQDPKKLNHTPVSTMSSSQPVSRPLQPIQPAPPLQPSGVPTSGPSQTTIHLLPTAPTTVNVTHRPVTQVTTRLPVPRAPANHQVVYTTLPAPPAQAPLRGTVMQAPAVRQVNPQNSVTVRVPQTTTYVVNNGLTLGSTGPQLTVHHRPPQVHTEPPRPVHPAPLPEAPQPQRLPPEAASTSLPQKPHLKLARVQSQNGIVLSWSVLEVDRSCATVDSYHLYAYHEEPSATVPSQWKKIGEVKALPLPMACTLTQFVSGSKYYFAVRAKDIYGRFGPFCDPQSTDVISSTQSS [ATF7IP]”, the thermal stability score was found to be 0.103 in series [1] (setting [5]) and 1.25 in series [1] (cell cycle stage: mitosis). Moreover, the “solubility in G1/S (log2)” value in series [2] turned out to be 0.0405. Further, the melting temperature in series [3] (cell cycle stage: G1/S) worked out at 49 °C; in series [3] (cell cycle stage: mitosis), 49.8 °C. Besides, the “solubility change mitosis (log2)” value in series [4] is -0.146.
On to “MDNMSITNTPTSNDACLSIVHSLMCHRQGGESETFAKRAIESLVKKLKEKKDELDSLITAITTNGAHPSKCVTIQRTLDGRLQVAGRKGFPHVIYARLWRWPDLHKNELKHVKYCQYAFDLKCDSVCVNPYHYERVVSPGIDLSGLTLQSNAPSSMMVKDEYVHDFEGQPSLSTEGHSIQTIQHPPSNRASTETYSTPALLAPSESNATSTANFPNIPVASTSQPASILGGSHSEGLLQIASGPQPGQQQNGFTGQPATYHHNSTTTWTGSRTAPYTPNLPHHQNGHLQHHPPMPPHPGHYWPVHNELAFQPPISNHPAPEYWCSIAYFEMDVQVGETFKVPSSCPIVTVDGYVDPSGGDRFCLGQLSNVHRTEAIERARLHIGKGVQLECKGEGDVWVRCLSDHAVFVQSYYLDREAGRAPGDAVHKIYPSAYIKVFDLRQCHRQMQQQAATAQAAAAAQAAAVAGNIPGPGSVGGIAPAISLSAAAGIGVDDLRRLCILRMSFVKGWGPDYPRQSIKETPCWIEIHLHRALQLLDEVLHTMPIADPQPLD [SMAD4]”, for which the values for the thermal stability score in series [1] (setting [5]) and in series [1] (cell cycle stage: mitosis) were 0.424 and 0.695, respectively. Further, the “solubility in G1/S (log2)” value in series [2] is -0.0138. Also, the melting temperature in series [3] (cell cycle stage: G1/S) turned out to be 51.3 °C; in series [3] (cell cycle stage: mitosis), 50.9 °C. Also, the “solubility change mitosis (log2)” value in series [4] is -0.03.
Consider PIK3C2B, for which the figures for the thermal stability score in series [1] (setting [5]) and in series [1] (cell cycle stage: mitosis) were -0.0552 and -0.413, respectively. In addition, the “solubility in G1/S (log2)” value in series [2] was -0.164. For the same substance, the melting temperature was determined as 50.1 °C in series [3] (cell cycle stage: G1/S) and 49.7 °C in series [3] (cell cycle stage: mitosis). The “solubility change mitosis (log2)” value in series [4] is -0.142.
With “MLEEDMEVAIKMVVVGNGAVGKSSMIQRYCKGIFTKDYKKTIGVDFLERQIQVNDEDVRLMLWDTAGQEEFDAITKAYYRGAQACVLVFSTTDRESFEAVSSWREKVVAEVGDIPTVLVQNKIDLLDDSCIKNEEAEALAKRLKLRFYRTSVKEDLNVNEVFKYLAEKYLQKLKQQIAEDPELTHSSSNKIGVFNTSGGSHSGQNSGTLNGGDVINLRPNKQRTKKNRNPFSSCSIP [RAB23]”, the thermal stability score in series [1] (setting [5]) turned out to be 1.88; in series [1] (cell cycle stage: mitosis) it was 1.67. Besides, the “solubility in G1/S (log2)” value in series [2] is -0.0011. Besides, the melting temperature in series [3] (cell cycle stage: G1/S) and in series [3] (cell cycle stage: mitosis) was 53.2 °C throughout. Moreover, the “solubility change mitosis (log2)” value in series [4] is -0.139.
